Experimental data: publication doi:10.1101/2024.04.08.588565v2

Substrate: O=C1CCCCC1
Assay: purified protein
Format: biochemical, Streptosporangium roseum
Settings: 30 mM cyclopropylamine, 0.5 mM NADPH

Row | Protein | Km (Tris pH 8, 25 °C) [µM] | kcat (Tris pH 8, 25 °C) [s⁻¹] | Km (100 mM Tris pH 8.0, 25 °C) [µM] | kcat (100 mM Tris pH 8.0, 25 °C) [s⁻¹]
1 | SrIRED (Streptosporangium roseum DSM 43021; P203A/T241G) (protein) MRDTDVTVLGLGLMGQALAGAFLKDGHATTVWNRSEGKAGQLAEQGAVLASSARDAAEASPLVVVCVSDHAAVRAVLDPLGDVLAGRVLVNLTSGTSEQARATAEWAAERGITYLDGAIMAIPQVVGTADAFLLYSGPEAAYEAHEPTLRSLGAGTTYLGADHGLSSLYDVALLGIMWGTLNSFLHGAALLGTAKVEATTFAAFANRWIEAVTGFVSAYAGQVDQGAYPALDATIDTHVAGVDHLIHESEAAGVNTELPRLVRTLADRALAGGQGGLGYAAMIEQFRSPSA | 5100 ± 400 | 49.3 ± 1.5 |  | 
2 | SrIRED (Streptosporangium roseum DSM 43021; T241A) (protein) MRDTDVTVLGLGLMGQALAGAFLKDGHATTVWNRSEGKAGQLAEQGAVLASSARDAAEASPLVVVCVSDHAAVRAVLDPLGDVLAGRVLVNLTSGTSEQARATAEWAAERGITYLDGAIMAIPQVVGTADAFLLYSGPEAAYEAHEPTLRSLGAGTTYLGADHGLSSLYDVALLGIMWGTLNSFLHGAALLGTAKVEATTFAPFANRWIEAVTGFVSAYAGQVDQGAYPALDATIDTHVAAVDHLIHESEAAGVNTELPRLVRTLADRALAGGQGGLGYAAMIEQFRSPSA | 2310 ± 330 | 5.77 ± 0.24 |  | 
3 | SrIRED (Streptosporangium roseum DSM 43021; E146V) (protein) MRDTDVTVLGLGLMGQALAGAFLKDGHATTVWNRSEGKAGQLAEQGAVLASSARDAAEASPLVVVCVSDHAAVRAVLDPLGDVLAGRVLVNLTSGTSEQARATAEWAAERGITYLDGAIMAIPQVVGTADAFLLYSGPEAAYEAHVPTLRSLGAGTTYLGADHGLSSLYDVALLGIMWGTLNSFLHGAALLGTAKVEATTFAPFANRWIEAVTGFVSAYAGQVDQGAYPALDATIDTHVATVDHLIHESEAAGVNTELPRLVRTLADRALAGGQGGLGYAAMIEQFRSPSA | 2400 ± 300 | 1.7 ± 0.1 |  | 
4 | SrIRED (Streptosporangium roseum DSM 43021) (protein) MRDTDVTVLGLGLMGQALAGAFLKDGHATTVWNRSEGKAGQLAEQGAVLASSARDAAEASPLVVVCVSDHAAVRAVLDPLGDVLAGRVLVNLTSGTSEQARATAEWAAERGITYLDGAIMAIPQVVGTADAFLLYSGPEAAYEAHEPTLRSLGAGTTYLGADHGLSSLYDVALLGIMWGTLNSFLHGAALLGTAKVEATTFAPFANRWIEAVTGFVSAYAGQVDQGAYPALDATIDTHVATVDHLIHESEAAGVNTELPRLVRTLADRALAGGQGGLGYAAMIEQFRSPSA |  |  | 3520 ± 440 | 2.11 ± 0.08
5 | SrIRED (Streptosporangium roseum DSM 43021; T241S) (protein) MRDTDVTVLGLGLMGQALAGAFLKDGHATTVWNRSEGKAGQLAEQGAVLASSARDAAEASPLVVVCVSDHAAVRAVLDPLGDVLAGRVLVNLTSGTSEQARATAEWAAERGITYLDGAIMAIPQVVGTADAFLLYSGPEAAYEAHEPTLRSLGAGTTYLGADHGLSSLYDVALLGIMWGTLNSFLHGAALLGTAKVEATTFAPFANRWIEAVTGFVSAYAGQVDQGAYPALDATIDTHVASVDHLIHESEAAGVNTELPRLVRTLADRALAGGQGGLGYAAMIEQFRSPSA | 2310 ± 510 | 6.02 ± 0.39 |  | 
